Laboratory results reported in the supplement of paper PMC12042874.
± gives the uncertainty stated by the source.

assay: amyloid nucleation score (Sup35N fusion, yeast selection) (log enrichment); library NNK3; higher = more nucleation; inactive = no reads after selection
How it was run: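 The nucleation score is a DiMSum log enrichment of output over input reads, centred on the mode score of non-aggregating sequences. Sequences under 100 input reads were excluded, and reads came from Illumina sequencing of plasmid inserts. Psi-negative yeast expressing Sup35N fused to peptides of 20 random codons were induced with 100 μM copper sulfate for 24 hours and grown 7 days at 30°C on medium lacking adenine and uracil. Random libraries had three technical output replicates.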

Substance | amyloid nucleation score
PIMVRRHEGSH | inactive
PKCSIGKSLLVGRLMDVRAV | inactive
PKIRSF | inactive
PKNFLSVETF | inactive
PKSYVNTVKVMVVNSQVQLQ | 0.836 ± 0.2
PLFHVFLELYTLPFVENFDV | inactive
PLLLQWHHYNLLGRS | 0.193 ± 0.69
PLPYANKNNCFGNSSLRATI | inactive
PLQNKASVRVGCWAML | inactive
PLSLDFVDVARFSGRTGCWF | inactive
PLSLSGGDDDRLLSLEMLVL | inactive
PLSVAFYGVTIR | 0.056 ± 0.19
PLYQSYYHLEPSCDWCYSSR | -0.144 ± 0.28
PMCFSSHRFGTCRINWHVPG | inactive
PMKGSSMSTPTANIRQ | -0.135 ± 1.1
PMYVHRKDYKVVGSYMSTM | inactive
PNGSYAKQLLVSIL | inactive
PNLMLPCTSGRELMKVSNVL | inactive
PNPLRLNNIRRVLARKSKVS | inactive
PNPYGNGIITWKN | inactive
PNRLTPFQRSTSSHLQNVGQ | inactive
PNRNYVCGMSCYGAVVSELR | inactive
PNYKNYLGGNRVVS | inactive
PQIVFRFDNIDQ | inactive
PRGMPIAIFSDWCRLRWGVF | inactive
PRNHIRSLSM | inactive
PRPSYWHRYSWSTTIVGGIS | inactive

Substance | amyloid nucleation score
PRSMNLHLTSSVTSCLKSVW | -0.707 ± 0.9
PRYGEVGATSFSDVTETML | inactive
PSHPVPLFHE | inactive
PSHTLRNTSLSMSVSTTHKA | inactive
PSKPRTGQVGGVYHLCVVFW | inactive
PSLYDLKRSCWGSWMAYEWK | inactive
PSNMRG | 0.147 ± 0.34
PSRRRMYADFHKATFPVRMG | inactive
PSSLVIINNYSYC | 3.09 ± 0.073
PSSSDGSMHLYIILQTLLFF | 1.49 ± 0.11
PSTEI | inactive
PSTGLNSVKNRIDVSCGFR | inactive
PTCGMDFVLQEYTKT | inactive
PTFCNQNFGNTFGCKRFYLS | inactive
PTILWAQYAGWGSKVWPPRL | inactive
PTKRYVKSYLISCVFIISHP | inactive
PTLLTMRQEQRHAKNFRSNL | inactive
PTLYRQNGLLWLVDGEKLIR | inactive
PTNLYCHRMGEVSVYCRNLR | inactive
PTNTNCLNVLG | inactive
PTVKKLYMQLFLSPCISSEG | inactive
PVLGSHRIVLSFDKIYLSRD | inactive
PVLSYSVLRYL | inactive
PVQQSGLVWRLGAIVVC | inactive
PVRIVLVKPGIFMLDVTYSP | inactive
PVSII | inactive
PVVTMLYLTSIVSSSGHGSY | 0.898 ± 0.11

Substance | amyloid nucleation score
PVVTVGYLDRMFISFLFSRI | inactive
PWSWWTHYTSGCQYQFGYRG | -0.749 ± 1.1
PYTTLYSFRNC | inactive
PYYRRMPVDSARRTSKSK | inactive
QALYDWILWNHWTTKVGPVA | inactive
QAVMKRAALVPTRTAKSLPS | inactive
QCFCILDFMYWIHARSIM | inactive
QCKHSPGWAWRNSTNHCIAS | inactive
QCLQALNMKIVFDHVRFRVR | inactive
QCRHPGSRP | inactive
QCRYRRSST | inactive
QCVCLS | inactive
QCVRSMLEELRIGYKVHRQS | inactive
QCYCGLTPTANLDPLMRIWD | inactive
QDDAVFSLSI | inactive
QDWEMVN | inactive
QEYEGLRDSVKTVEGYVWLM | inactive
QFHYYVLMIRSVIPFIALWK | inactive
QFLRGVMPAGMECAHATMRW | inactive
QFMYMFRARRTCGLNNGGQD | -0.689 ± 1.5
QFSRPGIFNFHRWDSRYRAA | inactive
QFSRWI | inactive
QFTGHINRDVNM | inactive
QFYTDSFLHIIFSWCGPLDQ | inactive
QGEHRHLCDLSLSEG | inactive
QGFFRFSLVSAKRACKLDYS | inactive
